Measurements reported in publication doi:10.1101/2022.12.23.521728 (bioRxiv, 2022).

Target: ATP synthase F1 α subunit of G. stearothermophilus FoF1 (G. stearothermophilus, UniProt P09219 1-502)
Assay: cryo-EM structure

Chain of ATP synthase F1 α subunit of G. stearothermophilus FoF1 (P09219 whole entry): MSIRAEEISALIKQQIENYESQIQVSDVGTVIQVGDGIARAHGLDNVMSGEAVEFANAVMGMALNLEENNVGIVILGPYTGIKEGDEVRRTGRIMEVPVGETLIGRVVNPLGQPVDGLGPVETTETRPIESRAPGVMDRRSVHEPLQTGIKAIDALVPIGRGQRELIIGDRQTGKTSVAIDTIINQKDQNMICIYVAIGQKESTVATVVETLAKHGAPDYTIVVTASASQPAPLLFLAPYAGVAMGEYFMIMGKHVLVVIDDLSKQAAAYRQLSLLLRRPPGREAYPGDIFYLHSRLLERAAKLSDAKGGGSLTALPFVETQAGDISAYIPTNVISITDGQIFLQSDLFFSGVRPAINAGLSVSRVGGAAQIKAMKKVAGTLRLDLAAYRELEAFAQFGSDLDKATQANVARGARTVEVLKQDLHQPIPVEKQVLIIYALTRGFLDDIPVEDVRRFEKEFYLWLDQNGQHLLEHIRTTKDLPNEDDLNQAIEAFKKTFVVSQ

B1: ATP synthase F1 γ subunit of G. stearothermophilus FoF1 (natural protein)
chain: ASLRDIKTRINATKKTSQITKAMEMVLTSKLNRAEKREIVRPYMEKIQEVVANVALAARASHPMLVSRPVKKTGYLVITSDRGLAGAYNSNVLRLVYQTIQKRHASPDEYAIIVIGRVGLSFFRKRNMPVILDITRLPDQPSFADIKEIARKTVGLFADGTFDELYMYYNHYVSAIQQEVTERKLLPLTDLAENKQRTVYEFEPSQEEILDVLLPQYAESLIYGALLDAKASEHAARMTAMKNATDNANELIRTLTLSYNRARQAAITQEITEIVAGANALQ
B1: binds.
